Data on three molecules can be found in patent US20200325237A1 (AVIDITY BIOSCIENCES, published 2020).

What is called Kd is the equilibrium constant for the complex coming apart. One may read the koff as the first-order rate constant of dissociation. By kon is commonly meant the second-order rate constant of association. The low end stands for slower complex formation, the high end for faster complex formation.

The target in assay [1] is T1, TfR2 (transferrin receptor 2) (UniProt Q9UP52 105-801, limits assumed).
T1 sequence (looked up): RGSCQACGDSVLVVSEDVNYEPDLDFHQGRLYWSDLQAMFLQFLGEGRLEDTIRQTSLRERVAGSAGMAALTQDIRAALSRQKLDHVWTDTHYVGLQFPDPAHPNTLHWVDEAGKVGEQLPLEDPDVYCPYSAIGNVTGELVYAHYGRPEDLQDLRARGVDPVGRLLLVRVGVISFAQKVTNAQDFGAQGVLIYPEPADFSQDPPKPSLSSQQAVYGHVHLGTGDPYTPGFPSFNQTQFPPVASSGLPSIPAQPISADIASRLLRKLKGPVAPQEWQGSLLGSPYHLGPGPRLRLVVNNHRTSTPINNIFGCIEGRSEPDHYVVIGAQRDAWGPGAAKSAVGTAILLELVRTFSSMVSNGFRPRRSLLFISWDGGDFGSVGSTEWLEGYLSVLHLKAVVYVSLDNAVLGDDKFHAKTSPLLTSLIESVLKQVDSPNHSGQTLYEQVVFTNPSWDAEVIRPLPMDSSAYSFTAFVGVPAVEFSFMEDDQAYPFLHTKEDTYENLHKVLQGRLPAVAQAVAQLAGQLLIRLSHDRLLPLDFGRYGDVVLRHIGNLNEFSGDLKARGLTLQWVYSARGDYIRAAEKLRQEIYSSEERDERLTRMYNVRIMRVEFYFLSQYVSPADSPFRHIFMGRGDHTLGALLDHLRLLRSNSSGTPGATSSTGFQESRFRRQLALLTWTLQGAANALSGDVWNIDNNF
The assay is described as follows: A450 plate assay on TfR2 (method not described in the text).

Assay [2] addresses T2, hTfR (human transferrin receptor, source and construct not stated) (human, UniProt P02786 89-760, limits assumed). The assay is described as follows: SPR (BioRad ProteOn XPR36), mAb captured on Protein A, hTfR as analyte, 25 C. As for the experimental part:
The binding kinetics of nine exemplary humanized anti-TfR antibodies and the parent chimeric antibody were characterized. Studies were run on a BioRad ProteOn XPR36 optical biosensor using a GLM sensor chip coated with Protein A for mAb capture. Running buffer included 10 mM EPES, 150 mM NaCl, pH 7.4 with 0.05 tween-20 with 0.2 mg/ml BSA. Data were collected at 25 degrees C. All mAbs were diluted into running buffer to 2 ug/ml based on the stock concentration provided. Each was then captured for 40 seconds over a Protein A surface.
hTfR (100 ug) was dissolved into […] of water to yield a 4.3 uM stock concentration. hTfR was dilted to 43 nM as the highest concentration and tested in a 3 fold dilution series. hTfR was injected at 200 ul/min for 2 minutes followed by a one-hour dissociation phase.

Assay [3] concerns the target T2, hTfR (human transferrin receptor, …). As to the kind of experiment: ELISA; ratio of the Kd on HFE-captured hTfR to the Kd on directly coated hTfR.
For assay [4] the target is unchanged. As to the kind of experiment: ELISA; ratio of the Kd on transferrin-captured hTfR to the Kd on directly coated hTfR. As to the method: (§1) Antibodies were biotinylated using 50 fold molar excess of EZ-Link No weigh NHS-Biotin (Thermo Scientific A39256) following manufacturer's instructions. Half-well high-bind plates (Costar #3690) were coated with 500 ng/mL purified human holo-transferrin (R&D Systems 2914-HT) in PBS at 4° C. overnight. For comparison, plates were coated directly with hTfR. Plates were washed four times with 100 μL of Tris buffered saline+Tween (20×TBST, Cell Signaling 9997S). 100 μL of Superblock (ThermoFisher PI-37535) was added to each well and incubated for 1 hour at room temperature. The wash step was repeated before the addition of the hTfR (200 ng/mL in 25 μl) to the transferrin plates, or Superblock to the hTfR plates, and incubated for 30 minutes. Biotinylated antibodies were diluted to 20 nM for the high concentration and added to the plates with 3-fold serial dilution. 25 μl/well was added to the 25 μl already in the plate. Plates were incubated for 1 hour, and wash step was repeated. Streptavidin-HRP (R&D Systems DY998) was added following recommended dilution on the package insert, and a final wash step was done. Binding was measured by the addition of 50 μL of 1-Step™ Ultra TMB-ELISA (ThermoFisher, 34028), incubated for 5 minutes, and the reaction was stopped with the addition of 25 μL of Stop Solution 2N sulfuric Acid (R&D Systems DY994). Absorbance was measured at 450 nm, with reference wavelength 570 nm subtracted. Binding constants were determined using GraphPad Prism Specific Binding with Hill Slope. Change in antibody binding constants in the presence versus absense of transferrin is considered relative to the commercially available antibody which is known to have an overlapping epitope with transferrin (AF2474, R&D Systems).
Background: In an ELISA, binding on a coated surface is turned into a signal by an enzyme label.

The target in assay [5] is T3, recombinant cyno transferrin receptor protein (Sino Biological 90253-C07H) (cyno, UniProt H9EXL1 89-760 (rhesus entry)).
T3 construct: Bought protein coated on ELISA plates; also called recombinant cyno TfR1; cynoTfR1
T3 sequence (chain, as listed by the source C07H C07H): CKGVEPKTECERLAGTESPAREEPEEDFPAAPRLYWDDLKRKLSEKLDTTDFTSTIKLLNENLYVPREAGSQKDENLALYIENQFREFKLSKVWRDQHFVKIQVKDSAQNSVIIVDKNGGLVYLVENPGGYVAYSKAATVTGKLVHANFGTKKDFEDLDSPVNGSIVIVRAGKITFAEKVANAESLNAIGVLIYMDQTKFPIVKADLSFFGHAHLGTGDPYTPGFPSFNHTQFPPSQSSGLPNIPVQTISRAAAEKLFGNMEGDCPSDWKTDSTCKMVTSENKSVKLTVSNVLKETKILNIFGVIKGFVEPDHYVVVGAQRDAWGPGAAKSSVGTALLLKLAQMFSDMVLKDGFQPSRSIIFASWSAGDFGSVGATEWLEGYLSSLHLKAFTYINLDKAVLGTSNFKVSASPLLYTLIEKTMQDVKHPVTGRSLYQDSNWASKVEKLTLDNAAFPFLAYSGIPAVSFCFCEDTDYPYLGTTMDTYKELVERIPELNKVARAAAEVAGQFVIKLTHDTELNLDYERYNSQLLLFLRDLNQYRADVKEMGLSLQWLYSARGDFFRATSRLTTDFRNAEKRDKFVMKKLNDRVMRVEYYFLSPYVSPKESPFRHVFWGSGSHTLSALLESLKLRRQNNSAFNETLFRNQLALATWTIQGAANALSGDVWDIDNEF
As to the kind of experiment: ELISA on plate-coated recombinant cyno TfR1 (CD71); fit: specific binding with Hill slope. As to the method:
(§2) Half-well high-binding 96-well plates (Costar #3690) were coated with recombinant human transferrin receptor protein (Sino Biological 11020-H07H) or recombinant cyno transferrin receptor protein (Sino Biological 90253-C07H) at 1 ng/μL in PBS (Gibco 14190) and incubated overnight at 4° C. Plates were washed four times with 100 μL of Tris buffered saline+Tween (20×TBST, Cell Signaling 9997S). 100 μL of Superblock (ThermoFisher PI-37535) was added to each well and incubated for 1 hour at room temperature. The wash step was repeated before the addition of the samples. Samples were added at concentrations up to 10 nM, 50 μL/well. Plates were incubated for another hour at room temp and wash step repeated. Secondary antibody (Peroxidase AffiniPure Goat Anti-Human IgG, Fcγ Fragment Specific, Jackson Immunoresearch, 109-035-098) was diluted 1:5000 in Superblock and 50 μL/well added. Plates were incubated for 1 hour at room temperature and washed one more time. Binding was measured by the addition of 50 μL of 1-Step™ Ultra TMB-ELISA (ThermoFisher, 34028), incubated for 5 minutes, and the reaction was stopped with the addition of 25 μL of Stop Solution 2N sulfuric Acid (R&D Systems DY994). Absorbance was measured at 450 nm, with reference wavelength 570 nm subtracted. Binding constants were determined using GraphPad Prism Specific Binding with Hill Slope.

Assay [6] has as its target T2, hTfR (human transferrin receptor, …). The assay is described as follows: ELISA, biotinylated antibody on hTfR captured by plate-coated HFE (HFE+TfR); fit: specific binding with Hill slope.
The target is the same in assay [7]. As to the kind of experiment: ELISA, biotinylated antibody on hTfR captured by plate-coated human holo-transferrin (Tf+TfR); fit: specific binding with Hill slope. As for the experimental part:
as §1

In assay [8] the target is T4, recombinant human transferrin receptor protein (Sino Biological 11020-H07H) (human, UniProt P02786 89-760).
T4 construct: Bought protein coated on ELISA plates; also called recombinant human TfR1; human TfR1
T4 sequence (P02786 89-760 limits assumed): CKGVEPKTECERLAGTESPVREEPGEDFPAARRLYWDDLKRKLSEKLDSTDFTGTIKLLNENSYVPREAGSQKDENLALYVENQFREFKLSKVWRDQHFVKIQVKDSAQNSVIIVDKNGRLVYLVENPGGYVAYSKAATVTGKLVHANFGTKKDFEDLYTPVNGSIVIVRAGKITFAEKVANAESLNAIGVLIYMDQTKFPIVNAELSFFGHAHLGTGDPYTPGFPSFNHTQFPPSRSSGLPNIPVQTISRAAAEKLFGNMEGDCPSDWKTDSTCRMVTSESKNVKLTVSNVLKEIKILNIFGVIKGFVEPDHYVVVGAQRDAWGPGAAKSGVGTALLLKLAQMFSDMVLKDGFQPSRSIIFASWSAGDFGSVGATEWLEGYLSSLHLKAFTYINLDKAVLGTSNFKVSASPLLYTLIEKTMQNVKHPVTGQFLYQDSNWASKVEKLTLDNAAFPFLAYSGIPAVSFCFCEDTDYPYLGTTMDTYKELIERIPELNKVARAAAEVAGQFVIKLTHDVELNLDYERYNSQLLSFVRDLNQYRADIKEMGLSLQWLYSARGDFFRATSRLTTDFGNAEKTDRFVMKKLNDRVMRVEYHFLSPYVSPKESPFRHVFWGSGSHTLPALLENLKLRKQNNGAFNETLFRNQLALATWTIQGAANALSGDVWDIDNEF
As to the kind of experiment: ELISA on plate-coated recombinant human TfR1 (CD71); fit: specific binding with Hill slope (row labels blank in the lower block; row taken by the order Bmax, h, Kd). As for the experimental part:
as §2

T2 sequence (P02786 89-760 limits assumed): as above

B1: 13E4-Variant 9iii (antibody, human IgG1, kappa, L234A L235A)
heavy: QVQLVQSGAEVKKPGASVKVSCKASGYTFTNYWMHWVRQAPGQGLEWMGEINPINGRSNYAQKFQGRVTLTVDTSISTAYMELSRLRSDDTAVYYCARGTRAMHYWGQGTLVTVSSASTKGPSVFPLAPSSKSTSGGTAALGCLVKDYFPEPVTVSWNSGALTSGVHTFPAVLQSSGLYSLSSVVTVPSSSLGTQTYICNVNHKPSNTKVDKRVEPKSCDKTHTCPPCPAPEAAGGPSVFLFPPKPKDTLMISRTPEVTCVVVDVSHEDPEVKFNWYVDGVEVHNAKTKPREEQYNSTYRVVSVLTVLHQDWLNGKEYKCKVSNKARPAPIEKTISKAKGQPREPQVYTLPPSREEMTKNQVSLTCLVKGFYPSDIAVEWESNGQPENNYKTTPPVLDSDGSFFLYSKLTVDKSRWQQGNVFSCSVMHEALHNHYTQKSLSLSPG
light: DIQMTQSPSSLSASVGDRVTITCRTSENIYNNLAWYQQKPGKAPKLLIYAATNLAEGVPSRFSGSGSGTDYTLTISSLQPEDFATYYCQHFWGTPLTFGGGTKVEIKRTVAAPSVFIFPPSDEQLKSGTASVVCLLNNFYPREAKVQWKVDNALQSGNSQESVTEQDSKDSTYSLSSTLTLSKADYEKHKVYACEVTHQGLSSPVTKSFNRGEC
notes: Humanized hIgG1 with Fc mutations; also called hIgG1 TfR-Var9iii
Regarding B1, in assay [1], the binding result was “no binding (tested: 1000 nM)”. Also, in assay [2], the dissociation constant (Kd) worked out at 5.27 pM, the off-rate (koff) worked out at 4.17e-06 s⁻¹ and the on-rate constant (kon) was determined as 791000 M⁻¹ s⁻¹. Also, the “Kd(HFE+TfR)/Kd(TfR)” value in assay [3] is 11.4. Further, the “Kd(Tf+TfR)/Kd(TfR)” value in assay [4] is 2.5. Also, in assay [5], the Bmax worked out at 94 % max binding, the dissociation constant (Kd) is 13.7 pM and the h worked out at 1.74. For the same molecule, in assay [6], the Bmax was 3.14 A450, the Kd is 248 pM and the h was found to be 1.38. In addition, in assay [7], the Bmax is 3.53 A450, the Kd turned out to be 54.6 pM and the h came to 1.49. Besides, in assay [8], the Bmax is 93.8 % max binding, the Kd is 12 pM and the h was 1.56.

B2: 13E4-Variant 15ii (antibody, human IgG1, kappa, L234A L235A)
heavy: QVQLVQSGAEVKKPGASVKVSCKASGYTFTNYWMHWVRQAPGQGLEWMGEINPIQGRSNYAEKFQGRVTLTVDTSSSTAYMELSSLRSEDTATYYCARGTRAMHYWGQGTLVTVSSASTKGPSVFPLAPSSKSTSGGTAALGCLVKDYFPEPVTVSWNSGALTSGVHTFPAVLQSSGLYSLSSVVTVPSSSLGTQTYICNVNHKPSNTKVDKRVEPKSCDKTHTCPPCPAPEAAGGPSVFLFPPKPKDTLMISRTPEVTCVVVDVSHEDPEVKFNWYVDGVEVHNAKTKPREEQYNSTYRVVSVLTVLHQDWLNGKEYKCGVSNKALPAPIEKTISKAKGQPREPQVYTLPPSREEMTKNQVSLTCLVKGFYPSDIAVEWESNGQPENNYKTTPPVLDSDGSFFLYSKLTVDKSRWQQGNVFSCSVMHEALHNHYTQKSLSLSPG
light: DIQMTQSPSSLSASVGDRVTITCRTSENIYSNLAWYQQKPGKAPKLLIYAGTNLADGVPSRFSGSGSGTDYTLTISSLQPEDFANYYCQHFWGTPLTFGGGTKVEIKRTVAAPSVFIFPPSDEQLKSGTASVVCLLNNFYPREAKVQWKVDNALQSGNSQESVTEQDSKDSTYSLSSTLTLSKADYEKHKVYACEVTHQGLSSPVTKSFNRGEC
notes: Humanized hIgG1 with Fc mutations; also called hIgG1 TfR-Var15ii
As for B2, the binding result in assay [1] is reported as “no binding (tested: 1000 nM)”. Also, the Kd in assay [2] worked out at 13.1 pM; in assay [5] it was 17.9 pM; in assay [6], 346 pM; in assay [7], 84.9 pM; in assay [8], 9.87 pM. Moreover, in assay [2], the koff was determined as 9.14e-06 s⁻¹. Also, the kon in assay [2] amounted to 697000 M⁻¹ s⁻¹. In addition, in assay [3], the “Kd(HFE+TfR)/Kd(TfR)” value is 10.2. Besides, the “Kd(Tf+TfR)/Kd(TfR)” value in assay [4] is 2.5. The Bmax was determined as 94.4 % max binding in assay [5], 2.79 A450 in assay [6], 3.52 A450 in assay [7] and 93.7 % max binding in assay [8]. Further, the h in assay [5] was determined as 1.53; in assay [6], 1.28; in assay [7], 1.46; in assay [8], 1.25.

B3: 13E4-Variant 15i (antibody, human IgG1, kappa, L234A L235A)
heavy: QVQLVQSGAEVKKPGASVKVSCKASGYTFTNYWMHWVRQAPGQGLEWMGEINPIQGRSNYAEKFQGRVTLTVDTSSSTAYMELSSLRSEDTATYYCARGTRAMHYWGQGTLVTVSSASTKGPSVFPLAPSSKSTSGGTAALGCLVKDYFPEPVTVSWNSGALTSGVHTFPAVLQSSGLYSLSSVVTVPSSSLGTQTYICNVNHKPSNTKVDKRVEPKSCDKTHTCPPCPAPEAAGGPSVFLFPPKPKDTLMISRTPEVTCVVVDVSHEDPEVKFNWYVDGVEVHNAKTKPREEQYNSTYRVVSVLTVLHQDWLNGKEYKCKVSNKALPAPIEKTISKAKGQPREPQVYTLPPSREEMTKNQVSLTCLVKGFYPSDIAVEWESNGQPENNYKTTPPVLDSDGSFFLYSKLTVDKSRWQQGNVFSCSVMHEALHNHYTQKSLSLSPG
light: DIQMTQSPSSLSASVGDRVTITCRTSENIYSNLAWYQQKPGKAPKLLIYAGTNLADGVPSRFSGSGSGTDYTLTISSLQPEDFANYYCQHFWGTPLTFGGGTKVEIKRTVAAPSVFIFPPSDEQLKSGTASVVCLLNNFYPREAKVQWKVDNALQSGNSQESVTEQDSKDSTYSLSSTLTLSKADYEKHKVYACEVTHQGLSSPVTKSFNRGEC
notes: Humanized hIgG1 with Fc mutations; also called hIgG1 TfR-Var15i
In the case of B3, the binding result in assay [1] was “no binding (tested: 1000 nM)”. Moreover, in assay [2], the Kd came to 8.51 pM, the koff worked out at 6.13e-06 s⁻¹ and the on-rate constant (kon) stood at 720000 M⁻¹ s⁻¹. Moreover, the “Kd(HFE+TfR)/Kd(TfR)” value in assay [3] was determined as 8.5. Further, in assay [4], the “Kd(Tf+TfR)/Kd(TfR)” value was determined as 2.9. In addition, in assay [5], the Bmax turned out to be 94.2 % max binding, the equilibrium dissociation constant (Kd) amounted to 12.5 pM and the h worked out at 1.55. In assay [6], this molecule returned a Bmax of 2.7 A450, an equilibrium dissociation constant (Kd) of 182 pM and a h of 1.65. Moreover, in assay [7], the Bmax came out at 3.47 A450, binding was put at a Kd of 61.9 pM and the h worked out at 1.56. In addition, in assay [8], the Bmax was 95.3 % max binding, the dissociation constant Kd was found to be 7.13 pM and the h was 1.29.
